Results published in patent US20140018297A1 (Novo Nordisk, published 2014).

How the values were obtained:
[1] = biological target: T1, Fluorescent labelled FVIII (Oregon green-FVIII) (UniProt P00451 20-2351, limits assumed, Oregon green label); assay: cell-based or functional assay
T1 sequence (looked up): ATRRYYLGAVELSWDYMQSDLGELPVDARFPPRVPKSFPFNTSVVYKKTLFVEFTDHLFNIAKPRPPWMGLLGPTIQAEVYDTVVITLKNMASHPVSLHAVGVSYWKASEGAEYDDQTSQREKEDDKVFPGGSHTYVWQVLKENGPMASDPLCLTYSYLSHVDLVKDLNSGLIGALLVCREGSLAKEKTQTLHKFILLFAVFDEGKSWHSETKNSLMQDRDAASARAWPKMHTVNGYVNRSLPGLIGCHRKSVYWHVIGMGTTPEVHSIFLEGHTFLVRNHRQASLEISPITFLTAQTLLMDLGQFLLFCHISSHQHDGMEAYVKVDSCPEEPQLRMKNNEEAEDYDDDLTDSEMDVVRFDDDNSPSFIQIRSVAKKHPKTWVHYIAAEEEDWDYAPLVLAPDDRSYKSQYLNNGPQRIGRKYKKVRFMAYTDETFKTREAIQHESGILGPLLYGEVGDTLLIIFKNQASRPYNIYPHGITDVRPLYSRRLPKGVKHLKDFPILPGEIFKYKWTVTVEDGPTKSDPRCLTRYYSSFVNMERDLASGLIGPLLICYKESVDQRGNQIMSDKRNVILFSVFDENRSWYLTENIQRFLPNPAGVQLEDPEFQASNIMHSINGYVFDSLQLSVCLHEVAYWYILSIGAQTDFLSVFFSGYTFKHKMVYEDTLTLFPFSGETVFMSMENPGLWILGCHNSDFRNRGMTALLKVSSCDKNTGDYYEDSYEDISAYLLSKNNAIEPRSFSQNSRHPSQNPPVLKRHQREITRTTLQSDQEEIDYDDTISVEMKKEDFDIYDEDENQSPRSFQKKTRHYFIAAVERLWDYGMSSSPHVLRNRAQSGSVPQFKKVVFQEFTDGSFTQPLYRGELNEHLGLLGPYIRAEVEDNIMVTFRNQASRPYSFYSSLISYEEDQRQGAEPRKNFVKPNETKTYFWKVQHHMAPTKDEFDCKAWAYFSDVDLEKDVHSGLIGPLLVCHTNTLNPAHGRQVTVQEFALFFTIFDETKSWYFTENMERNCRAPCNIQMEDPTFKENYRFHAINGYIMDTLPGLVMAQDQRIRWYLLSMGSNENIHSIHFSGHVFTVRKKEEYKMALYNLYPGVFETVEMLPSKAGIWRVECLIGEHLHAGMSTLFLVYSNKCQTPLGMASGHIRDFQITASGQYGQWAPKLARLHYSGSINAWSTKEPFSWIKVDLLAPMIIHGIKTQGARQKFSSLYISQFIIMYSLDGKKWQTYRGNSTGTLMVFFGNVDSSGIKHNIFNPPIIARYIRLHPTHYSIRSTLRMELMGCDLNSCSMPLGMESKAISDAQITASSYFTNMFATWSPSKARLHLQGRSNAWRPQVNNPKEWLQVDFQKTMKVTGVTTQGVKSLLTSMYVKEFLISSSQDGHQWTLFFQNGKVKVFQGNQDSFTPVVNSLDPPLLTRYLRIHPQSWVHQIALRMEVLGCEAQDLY

[2] = biological target: T2, FVIII (as used in the competition ELISA of Example 21; form not stated) (UniProt P00451 20-2351, limits assumed); assay: competition ELISA; competitor coated human VWF; FVIII 1 nM pre-incubated with the fragment
T2 sequence (looked up): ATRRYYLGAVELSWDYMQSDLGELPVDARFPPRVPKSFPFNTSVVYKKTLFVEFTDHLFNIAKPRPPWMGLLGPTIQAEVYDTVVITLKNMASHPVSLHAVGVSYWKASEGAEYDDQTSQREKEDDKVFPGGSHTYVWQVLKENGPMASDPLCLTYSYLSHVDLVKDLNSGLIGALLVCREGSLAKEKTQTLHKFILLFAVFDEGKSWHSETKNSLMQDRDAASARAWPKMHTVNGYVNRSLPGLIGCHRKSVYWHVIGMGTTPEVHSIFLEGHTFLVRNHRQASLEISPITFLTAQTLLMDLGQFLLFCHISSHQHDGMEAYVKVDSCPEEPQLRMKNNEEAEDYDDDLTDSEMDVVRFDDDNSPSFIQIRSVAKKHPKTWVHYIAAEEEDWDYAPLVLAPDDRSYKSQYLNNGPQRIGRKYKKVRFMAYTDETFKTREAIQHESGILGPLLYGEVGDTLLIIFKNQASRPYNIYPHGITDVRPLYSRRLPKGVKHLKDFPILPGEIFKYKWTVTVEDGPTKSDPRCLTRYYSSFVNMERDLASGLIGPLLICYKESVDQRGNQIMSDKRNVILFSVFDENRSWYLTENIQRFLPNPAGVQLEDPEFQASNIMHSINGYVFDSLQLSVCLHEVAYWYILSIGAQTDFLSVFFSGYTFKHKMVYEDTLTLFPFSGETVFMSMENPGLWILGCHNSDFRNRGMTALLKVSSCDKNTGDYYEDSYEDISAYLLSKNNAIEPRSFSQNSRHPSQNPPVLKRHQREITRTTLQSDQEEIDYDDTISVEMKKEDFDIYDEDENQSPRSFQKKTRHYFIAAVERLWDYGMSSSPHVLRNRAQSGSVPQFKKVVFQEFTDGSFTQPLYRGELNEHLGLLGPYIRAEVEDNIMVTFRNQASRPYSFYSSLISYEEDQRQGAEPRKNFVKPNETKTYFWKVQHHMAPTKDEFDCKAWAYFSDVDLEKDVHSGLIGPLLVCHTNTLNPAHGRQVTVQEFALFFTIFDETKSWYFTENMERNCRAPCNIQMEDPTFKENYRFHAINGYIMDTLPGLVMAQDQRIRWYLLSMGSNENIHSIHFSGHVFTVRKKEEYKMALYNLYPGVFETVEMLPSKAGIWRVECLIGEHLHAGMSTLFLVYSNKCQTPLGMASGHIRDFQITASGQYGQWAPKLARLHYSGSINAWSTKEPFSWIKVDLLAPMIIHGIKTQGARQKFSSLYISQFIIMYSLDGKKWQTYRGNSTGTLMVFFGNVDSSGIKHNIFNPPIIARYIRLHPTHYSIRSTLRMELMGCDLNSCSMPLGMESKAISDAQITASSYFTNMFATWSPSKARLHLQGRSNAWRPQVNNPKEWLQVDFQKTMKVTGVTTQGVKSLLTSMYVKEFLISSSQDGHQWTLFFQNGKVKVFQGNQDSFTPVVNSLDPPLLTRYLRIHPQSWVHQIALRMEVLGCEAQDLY
Procedure: In order to investigate the binding of the different VWF fragments to FVIII the following method is used. Briefly, human VWF is coated in a microtiterplate and incubated overnight at 4° C. After blocking, a solution with pre-incubated FVIII (1 nM) and VWF/VWF-fragment is added to the plate, followed by detection with biotinylated anti FVIII antibody and streptavidin-peroxidase S-POD (1:20000). The absorbance is measured at 450/620 nm.

[3] = biological target: T3, FVIII (N8, turoctocog alfa), B domain truncated FVIII (human, UniProt P00451 20-2351); assay: isothermal titration calorimetry at 20° C., VWF variant injected into FVIII
T3 construct: also called F8; F8-500
T3 sequence: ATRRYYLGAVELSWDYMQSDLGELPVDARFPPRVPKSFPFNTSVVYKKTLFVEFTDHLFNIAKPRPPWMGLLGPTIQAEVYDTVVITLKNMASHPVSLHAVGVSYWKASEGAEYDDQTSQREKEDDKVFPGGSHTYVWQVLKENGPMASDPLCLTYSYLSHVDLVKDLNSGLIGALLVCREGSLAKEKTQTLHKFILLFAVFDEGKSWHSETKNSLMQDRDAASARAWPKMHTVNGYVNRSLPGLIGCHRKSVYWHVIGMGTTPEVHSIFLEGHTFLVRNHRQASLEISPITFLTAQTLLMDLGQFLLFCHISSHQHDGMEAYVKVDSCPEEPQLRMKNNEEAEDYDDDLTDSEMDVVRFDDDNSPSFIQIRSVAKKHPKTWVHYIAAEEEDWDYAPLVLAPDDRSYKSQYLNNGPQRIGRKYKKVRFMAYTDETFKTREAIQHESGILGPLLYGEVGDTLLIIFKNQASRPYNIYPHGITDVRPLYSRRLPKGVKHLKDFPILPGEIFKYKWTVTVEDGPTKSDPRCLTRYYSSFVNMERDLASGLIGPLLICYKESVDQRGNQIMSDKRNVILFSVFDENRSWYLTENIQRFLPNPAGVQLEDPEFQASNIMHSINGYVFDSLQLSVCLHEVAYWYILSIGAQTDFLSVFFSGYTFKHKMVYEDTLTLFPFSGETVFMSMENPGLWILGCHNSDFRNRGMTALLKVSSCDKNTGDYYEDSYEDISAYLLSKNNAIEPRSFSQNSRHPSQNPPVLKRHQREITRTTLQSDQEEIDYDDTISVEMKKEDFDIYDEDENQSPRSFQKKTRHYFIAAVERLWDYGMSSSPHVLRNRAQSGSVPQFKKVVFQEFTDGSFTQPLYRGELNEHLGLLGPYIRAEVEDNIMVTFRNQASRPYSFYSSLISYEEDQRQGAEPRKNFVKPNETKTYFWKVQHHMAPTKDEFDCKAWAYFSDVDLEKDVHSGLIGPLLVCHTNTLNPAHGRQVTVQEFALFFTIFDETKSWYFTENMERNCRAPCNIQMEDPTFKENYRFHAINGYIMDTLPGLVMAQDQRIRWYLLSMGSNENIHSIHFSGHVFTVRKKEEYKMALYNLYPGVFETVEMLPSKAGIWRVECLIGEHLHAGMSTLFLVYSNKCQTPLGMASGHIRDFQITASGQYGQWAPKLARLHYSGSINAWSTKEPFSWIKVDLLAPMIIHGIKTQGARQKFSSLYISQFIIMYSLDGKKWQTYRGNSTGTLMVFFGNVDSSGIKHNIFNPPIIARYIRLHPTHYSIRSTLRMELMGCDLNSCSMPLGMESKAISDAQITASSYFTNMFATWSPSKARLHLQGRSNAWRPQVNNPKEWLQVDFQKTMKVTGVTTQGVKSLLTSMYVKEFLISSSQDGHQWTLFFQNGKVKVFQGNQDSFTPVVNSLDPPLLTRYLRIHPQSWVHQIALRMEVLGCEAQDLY
Procedure: (§1) All protein samples are dialyzed in 50 mM Hepes pH 7.4, 150 mM NaCl, 10 mM CaCl₂ buffer. Each iTC experiment involves filling the iTC cell with FVIII (approximately 250 μL) and the syringe with VWF variants (approximately 40 μL). Temperature is set as required and the protein sample is allowed to equilibrate under given experimental conditions (approximately 10 minutes). Typically 17-20 injections (of 2-2.5 μL) of VWF variants into cell, containing FVIII, are performed. The first injection is always of 0.2 μL and is discarded from the final data analysis in order to account for diffusion during equilibration step. Stirring speed is set between 700-1000 rpm. Filter period for data collection is 5 sec with a high feedback mode setting. Each titration is spaced by 120 sec. Appropriate control experiments are performed. Raw data is processed to set baseline and integrated to obtain a final isotherm. This binding isotherm is fit to a single-site model to yield Kd, stoichiometry (n), ΔH, and ΔS values to complete characterization of VWF variant binding to FVIII.

[4] = biological target: T3, FVIII (N8, turoctocog alfa), B domain …; assay: isothermal titration calorimetry at 20° C., VWF variant injected into FVIII; ITC at 20° C.
Procedure: as §1

[5] = biological target: T3, FVIII (N8, turoctocog alfa), B domain …; assay: Isothermal titration calorimetry at 20 °C, VWF fragment in the syringe titrated into FVIII (turoctocog alfa) in the cell, single-site fit; 50 mM Hepes pH 7.4, 150 mM NaCl, 10 mM CaCl2
Procedure: as §1

B1: VWF(764-1041)-ALA-HPC4 monomer (other)
chain: SLSCRPPMVKLVCPADNLRAEGLECTKTCQNYDLECMSMGCVSGCLCPPGMVRHENRCVALERCPCFHQGKEYAPGETVKIGCNTCVCQDRKWNCTDHVCDATCSTIGMAHYLTFDGLKYLFPGECQYVLVQDYCGSNPGTFRILVGNKGCSHPSVKCKKRVTILVEGGEIELFDGEVNVKRPMKDETHFEVVESGRYIILLLGKALSVVWDRHLSISVVLKQTYQEKVCGLCGNFDGIQNNDLTSSNLQVEEDPVDFGNSWKVSSQCADTRKVPLDSALAEDQVDPRLIDGK
notes: also called 2306; TIL′/E′/VWD3 II
With B1 the “IC50 (nM), FVIII uptake in dendritic cells” value [1] was 570 nM and the IC50 [2] was 2200 nM.

B2: VWF(764-1250)-C1099/1142S-ALA-HPC4 monomer (other)
chain: SLSCRPPMVKLVCPADNLRAEGLECTKTCQNYDLECMSMGCVSGCLCPPGMVRHENRCVALERCPCFHQGKEYAPGETVKIGCNTCVCQDRKWNCTDHVCDATCSTIGMAHYLTFDGLKYLFPGECQYVLVQDYCGSNPGTFRILVGNKGCSHPSVKCKKRVTILVEGGEIELFDGEVNVKRPMKDETHFEVVESGRYIILLLGKALSVVWDRHLSISVVLKQTYQEKVCGLCGNFDGIQNNDLTSSNLQVEEDPVDFGNSWKVSSQCADTRKVPLDSSPATCHNNIMKQTMVDSSCRILTSDVFQDCNKLVDPEPYLDVCIYDTCSCESIGDCASFCDTIAAYAHVCAQHGKVVTWRTATLCPQSCEERNLRENGYESEWRYNSCAPACQVTCQHPEPLACPVQCVEGCHAHCPPGKILDELLQTCVDPEDCPVCEVAGRRFASGKKVTLNPSDPEHCQICHCDVVNLTCEACQEPGGLVVPPTDAALAEDQVDPRLIDGK
notes: also called TIL′/E′/D3 I
B2 was tested, and the “IC50 (nM), FVIII uptake in dendritic cells” value [1] was 31 nM and the IC50 [2] was 12 nM.

B3: VWF(764-865)-ALA-HPC4 monomer (other)
chain: SLSCRPPMVKLVCPADNLRAEGLECTKTCQNYDLECMSMGCVSGCLCPPGMVRHENRCVALERCPCFHQGKEYAPGETVKIGCNTCVCQDRKWNCTDHVCDAALAEDQVDPRLIDGK
notes: also called TIL′E′
With B3 the stoichiometry [3] was 1.14, the ΔH [3] was -5.82 kcal/mol and the ΔS [3] was 9.8 cal/mol/deg. The Kd [4] was 330 nM, the IC50 [2] was 2000 nM and the Ka [5] was 3.02e+06 M⁻¹.
